The Human Domainome abundance scans (Beltran et al. 2025)

B1: Transitional endoplasmic reticulum ATPase, residues 26 to 106; numbered along this chain, P55072 (parent)
chain: LIVDEAINEDNSVVSLSQPKMDELQLFRGDTVLLKGKKRREAVCIVLSDDTCSDEKIRMNRVVRNNLRVRLGDVISIQPCP
B2: Gamma-crystallin C, residues 91 to 170; numbered along this chain, P07315 (parent)
chain: RLYEREDHKGLMMELSEDCPSIQDRFHLSEIRSLHVLEGCWVLYELPNYRGRQYLLRPQEYRRCQDWGAMDAKAGSLRRV

Variants of: B1
Test: abundance fitness (aPCA) (normalised: wild type 0, dead -1); higher = more abundant; growth selection in yeast, the domain comes from the species named
Settings: Homo sapiens

Abundance fitness of substitutions, site by site:
I2: P -0.891, W -0.302, G -0.357, M -0.102, F -0.103, Y -0.418, T 0.024, N -0.059, V -0.058, E -0.167, C -0.162, K -0.006, S -0.196, L -0.115, R -0.162, Q -0.164, A -0.45, D -0.806
V3: T -0.432, A -0.242, K -0.639, G -0.811, D -0.529, W -0.952, M -0.194, R -0.992, E -0.809, S -0.773, F -0.797, L -0.708, I -0.037, P -0.948, Q -0.891, C -0.173
D4: Q -0.179, E -0.015, H -0.04, T -0.017, M -0.041, N -0.332, P -1.11, I 0.052, S -0.018, Y -0.32, V -0.082, C 0.096, A -0.009, K -0.271, G -0.085, F -0.345, L -0.203, R -0.627, W -0.091
L1: M -0.046, T -0.424, K -0.292, A -0.126, S -0.264, G -0.662, C -0.117, F 0.15, I 0.128, R -0.744, V -0.003, Y -0.582
A6: Q 0.007, R -0.084, L 0.092, H 0.001, K -0.154, F 0.093, V -0.133, Y -0.404, C -0.048, E -0.107, N -0.004, D -0.054, P 0.024, I 0.002, G 0.024, T 0.046, W -0.006, S 0.029
N8: A -0.059, Y 0.006, I -0.042, S -0.036, C -0.015, H -0.042, T 0.046, L -0.022, W -0.13, K -0.011, D 0.075, Q -0.025, M -0.099, V -0.096, G 0.022, E 0.013, P -0.096, R -0.083, F -0.083
I7: S -0.048, D 0.032, E 0.127, A -0.019, N -0.193, Y -0.238, C -0.021, M 0.039, H -0.15, R -0.042, W -0.003, V -0.07, Q -0.17, G -0.011, F 0.009, T -0.099, L 0.048
E9: N 0.184, C 0.045, F -0.057, L -0.087, D 0.041, H -0.109, K -0.216
E5: S 0.029, P -0.149, L -0.107, T -0.1, W -0.051, C -0.013, Y 0.048, G -0.032, V -0.068, D 0.003, N -0.018, I -0.045, H -0.224, Q -0.124, F 0.016, M 0.042

Variants of: B2
Test: as above
Settings: Homo sapiens

Abundance fitness, by site and new letter:
M70: C -0.217, I 0.097, E 0.034, F -0.226, T -0.06, P 0.064, L -0.063, R -0.016, H 0.049, V -0.017, W -0.257, Y -0.105, K -0.053, G -0.167, S -0.052, D 0.094
G68: A -0.721, V -0.985, D -0.679, T -1.01, Q -0.763, K -0.623, C -0.696, L -0.529, S -0.44, P -0.784, R -0.764
C64: P 0.014, Y -0.116, S -0.285, F -0.093, V -0.596, L -0.841, T -0.213, W -0.086, G -0.597, A -0.144, H 0.063, R -0.653, Q -0.795, M -0.404
L77: V -0.169, R -1.06, F -0.304, M -0.035, C -0.325, E -0.966, T -0.626, I 0.011, A -0.524, D -0.94
D71: H -0.173, C -0.029, M -0.443, R -0.224, E -0.185, T 0.024, N -0.173, F -0.148, P -0.933, S -0.015, K -0.126, A -0.483, I -0.297, L -0.5, Y -0.134, G -0.165, W -0.281
W67: E -1.07, K -0.827, R -0.744, H -0.89, L -0.951, T -0.612, Q -0.681, G -1, C -0.703, P -0.935, A -0.944, S -0.778
A72: F -0.5, G -0.118, R -0.782, N -0.066, P -0.007, Y -0.452, W -0.365, T -0.207, H -0.375, V -0.554, I -0.745, S -0.058, M -0.997
A74: S -0.314, C -0.177, L -0.454, P -0.779, E -0.56, Q -0.797, I 0.124, M -0.836, T -0.128, D -0.749, Y -0.781, V 0.036, G -0.454
G75: E -0.984, A -0.607, T -0.949, R -0.933, N -0.767, C -0.516, L -0.826, H -0.736, S -0.479, W -0.989, P -0.84, D -0.705, V -0.815, Q -0.746
D66: R -0.857, A -0.313, W -0.639, Q -0.491, P -0.879, T -0.934, M -0.47, L -0.518, V -0.749, Y -0.603, C -0.485, E -0.083, S -0.316, H -0.548
R63: S -0.091, T 0.016, Y -0.23
Q65: G -0.08, I -0.336, C -0.265, N -0.129, V 0.071, R -0.173, M -0.283, L -0.17, Y -0.149, E -0.044, P -0.687, K -0.06, H -0.242, F -0.248, S -0.02, A -0.075, T -0.032, D -0.355
S76: I 0.016, H -0.735, A -0.628, P -0.776, V -0.773
A69: C -0.621, W -0.668, T -0.361, Q -0.38, M -0.847, R -0.964, L -0.935, S -0.074, V -0.818, D -0.701, G -0.196, P -0.968
K73: V -0.18, G -0.304, T -0.124, R 0.017, F -0.368, Y -0.295, Q -0.264, E -0.495, N -0.026, H -0.042, M -0.231, S -0.145, L -0.185, C -0.175, P -0.628, W -0.321, A -0.069
V80: I -0.341, F -0.1
R79: S -0.202
